According to paper PMC12974146:

Molecular target: Recombinant CdaA fragment spanning residues 88-273 (CdaA_(88-273)), Leptospira interrogans LIC10844 (Leptospira interrogans serovar Copenhageni strain Fiocruz L1-130)
Assay: SEC; TSKgel G4000SWXL column, PBS as mobile phase, 1.0 mL min^-1; 50 µg of protein injected; MW estimated from a standard curve of 15-600 kDa protein standards

stoichiometry N: 2
Substance: Recombinant CdaA fragment spanning residues 88-273 (CdaA_(88-273)), Leptospira interrogans LIC10844 (domain or fragment)
